Laboratory results reported in patent publication US20210032294A1, “MODIFIED PlySs2 LYSINS AND USES THEREOF” (CONTRAFECT CORPORATION, priority 2018, published 2021).
Substitutions are numbered along the chain they refer to. In names and notes the source's numbering stands. Several values for one entry are separate records, joined by “and”; a condition that tells them apart may be missing. Equal entries are not always repeated.

B1: CF-301: WT GMP grade PlySs2 lysin, SEQ ID NO: 1 (protein, listed as Streptococcus suis)
chain: MTTVNEALNNVRAQVGSGVSVGNGECYALASWYERMISPDATVGLGAGVGWVSGAIGDTISAKNIGSSYNWQANGWTVSTSGPFKAGQIVTLGATPGNPYGHVVIVEAVDGDRLTILEQNYGGKRYPVRNYYSAASYRQQVVHYITPPGTVAQSAPNLAGSRSYRETGTMTVTVDALNVRRAPNTSGEIVAVYKRGESFDYDTVIIDVNGYVWVSYIGGSGKRNYVATGATKDGKRFGNAWGTFK
B2: pp65: Modified PlySs2 lysin, SEQ ID NO: 5: L92W, V104S, V128T, Y137S, S198Q, V204A, V212A; +246K (protein)
chain: B1 chain with L92W, V104S, V128T, Y137S, S198Q, V204A, V212A
B3: pp55: Modified PlySs2 lysin, SEQ ID NO: 3: L92W, V104S, V128T, Y137S; extra C-terminal lysine (+246K) (protein)
chain: B1 chain with L92W, V104S, V128T, Y137S
B4: pp61: Modified PlySs2 lysin, SEQ ID NO: 4: L92W, V104S, V128T, Y137S, S198H, I206E; +246K (protein)
chain: B1 chain with L92W, V104S, V128T, Y137S, S198H, I206E

Legend:
[1] = test system: 1-day old biofilms formed by MRSA isolates; assay: Minimum Biofilm Eradication Concentration (MBEC), MRSA biofilms; format: cell-based, Staphylococcus aureus; conditions: 24 hours treatment
Description: (§1) In some embodiments, the present modified lysin polypeptides are capable of reducing a biofilm. […] Biofilms are then washed and treated with e.g., a 2-fold dilution series of the lysin in TSBg at e.g., 37° C. for 24 hours. After treatment, wells are washed, air-dried at e.g., 37° C. and stained with e.g., 0.05% crystal violet for 10 minutes. After staining, the biofilms are destained in e.g., 33% acetic acid and the OD600 of e.g., extracted crystal violet is determined. The MBEC of each sample is the minimum lysin concentration required to remove >95% of the biofilm biomass assessed by crystal violet quantitation.
(§2) The anti-biofilm activity of pp296 was determined against 1-day old biofilms formed by 17 MSSA and 20 MRSA isolates in a 96-well broth microdilution format. The Minimum Biofilm Eradication Concentration (MBEC) values for pp296, compared to wild-type PlySs2 (CF-301), were determined by the following standard methodology. Bacteria were suspended in PBS (0.5 McFarland Units), diluted 1:100 in TSBg (66% tryptic soy broth, 0.2% glucose), added as 0.15 mL aliquots to 96-well polystyrene microplates, and incubated for 24 hours at 37° C. Biofilms were then washed and treated with a 2-fold dilution series of CF-301 or pp296 in TSBg at 37° C. for 24 hours. All samples were examined in triplicate. After treatment, wells were washed, air-dried at 37° C., and stained with 0.05% crystal violet for 10 min The loss of biofilm biomass was assessed visually, and crystal violet was quantitated by solubilization in 33% (vol/vol) acetic acid. The optical density of 600 nm (OD600) was determined using a SpectraMax M3 Multimode microplate reader. The MBEC of each sample was the minimum lysin concentration required to remove >95% of the biofilm biomass assessed by crystal violet quantitation.

MSSA isolates = assay: MIC in CAMHB-HSD against MSSA isolates; format: cell-based, Staphylococcus aureus; conditions: 51 MSSA isolates
Description: (§3) In vitro activity of the modified lysin polypeptide pp296 was assessed against a range of 51 MSSA and 51 MRSA isolates in cation-adjusted Mueller Hinton broth supplemented with 25% horse serum and 0.5 mM DTT (CAMHB-HSD) and compared to WT GMP grade PlySs2 (CF-301). CF-301 and pp296 were each diluted into CAMHB-HSD. For each lysin, the dilution series is set up such that, after a two-fold dilution of each well of the plate, the final concentrations contained: 64, 32, 16, 8, 4, 2, 1, 0.5, 0.25, and 0.125 μg/mL. Each lysin was tested in duplicate against each strain. Preparations were incubated overnight. Growth was visualized as a growth button approximately 2 mm in diameter. The highest dilution that yielded ≥80% growth inhibition was called the minimum inhibitory concentration (MIC). The activity of pp296 was very similar, within one 2-fold dilution, to that of CF-301, as shown below in Table 7.

[2] = test system: 5 MRSA strains and 5 MSSA strains; assay: Checkerboard synergy assay with daptomycin or vancomycin; format: cell-based, Staphylococcus aureus; conditions: with vancomycin
Description: Synergy studies with antibiotics suitable for treatment of Gram-positive bacteria, for example, daptomycin (DAP) and vancomycin (VAN), were performed using a checkerboard assay. Fractional inhibitory concentration (FIC) index values were determined for modified lysin polypeptide pp296 and antibiotic combinations against 5 methicillin-sensitive Staphylococcus aureus (MSSA) and 5 methicillin resistant Staphylococcus aureus (MRSA) isolates. An FIC index value of ≤0.5 may be interpreted as strong synergy between the two agents, while a value between 0.5 and 1 may still be considered a synergistic effect. Given that pp296 has four amino acid replacements in the catalytic domain, the ability of pp296 to synergize with antibiotics was unexpected. […] Qualitatively similar results may be anticipated upon performing similar assays using other de-immunized active variants, such as pp55, pp61, pp65, pp400, and pp619, in accordance with the present disclosure.
In another experiment, the ability of modified lysin polypeptide pp296 to synergize with daptomycin and vancomycin was assessed using a checkerboard analysis. FIC (fractional inhibitory concentration) index values were determined for pp296 and antibiotic combinations against 5 MSSA and 5 MRSA isolates. A total of 50 μl of Mueller-Hinton broth (BBL) was distributed into each well of microdilution plates. The first antibiotic of the combination was serially diluted along the ordinate, while the second drug was diluted along the abscissa. An inoculum equal to a 0.5 McFarland turbidity standard was prepared from each S. aureus isolate in MHB. Each microtiter well was inoculated with 100 μl of a bacterial inoculum of 5×10^5 CFU/ml, and the plates were incubated at 37° C. for 18 h under aerobic conditions. The resulting checkerboard contained each combination of two antibiotics, with wells that contained the highest concentration of each antibiotic at opposite corners. […] To quantify the interactions between the antibiotics being tested, the FIC index (the combination of antibiotics that produced the greatest change from the individual antibiotic's MIC) value was calculated for each strain and antibiotic combination as follows:
(A/MICA)+(B/MICB)=FICA+FICB=FIC index,
Checkerboards were generated using combinations of pp296 with either daptomycin or vancomycin against 5 MRSA strains (MW2, JMI-5675, JMI-4408, JMI-6181, and JMI-6182) and 5 MSSA strains (ATCC 29213, JMI-40979, JMI-43257, JMI-41293, and JMI-49315). Synergy was defined as inhibitory activity greater than what would be predicted by adding the two components together.

[3] = test system: 5 MRSA strains and 5 MSSA strains; assay: as above; format: cell-based, Staphylococcus aureus; conditions: MRSA (JMI-41293) strain
[4] = Toxicity screening in mice; format: in vivo
Description: Selected modified lysin polypeptides from Table 3 were subjected to further testing as described in more detail in subsequent Examples. […] The same 30 mg/kg dose of PlySs2 caused a 100% incidence of adventitial findings, which is an indication of potential toxicity.

[5] = test system: 1-day old biofilms formed by MSSA isolates; assay: Minimum Biofilm Eradication Concentration (MBEC), MSSA biofilms; format: cell-based, Staphylococcus aureus; conditions: 24 hours treatment
Description: as §1, §2

MRSA isolates = assay: MIC in CAMHB-HSD against MRSA isolates; format: cell-based, Staphylococcus aureus; conditions: 51 MRSA isolates
Description: as §3

bacterial inoculum = assay: Thermal stability: in vitro lytic assay after 30 min heating; format: cell-based; conditions: for % Wild-Type Activity at 37° C. / % of CF-301 wild-type, 37° C.: 30 minutes at 37° C.; for % Wild-Type Activity at 37° C.: 128 μg/mL in Tris buffer pH 8.0, CF-301 set at 100; for % of CF-301 wild-type, 37° C.: another experiment; for % of CF-301 wild-type, 40° C.: 30 minutes at 40° C.; for % of CF-301 wild-type, 42° C.: 30 minutes at 42° C.; for % of CF-301 wild-type, 45° C.: 30 minutes at 45° C.; for % of CF-301 wild-type, 48° C.: 30 minutes at 48° C.; for % of CF-301 wild-type, 50° C.: 30 minutes at 50° C.
Description: Thermal stability was assessed by incubating the lysin polypeptides at a fixed concentration of 128 μg/mL in Tris buffer pH 8.0 for 30 minutes at various elevated temperatures (within the range of about 30° C. to 60° C.) prior to assessing activity. The samples were then cooled for 2 minutes on ice and activity was then assessed by an in vitro lytic assay by exposing a bacterial inoculum (OD600 ˜0.5-1.2) in Tris buffer to a 2-fold dilution series of each sample (diluted from 128-0.25 μg/mL across the x-axis of a 96 well microtiter plate). The loss of optical density was followed for 15 minute at room temperature, and the specific activity was determined based on the enzyme concentration enabling a 50% loss of optical density at 15 minutes. The enzyme activities of each variant were compared to the wild-type, CF-301 enzyme (GMT-grade PlySs2 protein) to calculate the % of Wild-Type Activity over a range of temperatures.
The thermal stability of wild-type, CF-301 was arbitrarily set at 100. The results for exemplary modified lysin polypeptides are set forth below in Table 5 at a single temperature of 37° C.:
In another experiment, the thermal stability of modified lysin polypeptides was assessed at different temperatures and compared with that of wild-type, CF-301 (set at 100).

[6] = test system: S. aureus isolate CFS-860; assay: Mouse neutropenic thigh infection (MNTI) model; format: in vivo, Staphylococcus aureus; conditions: neutropenic BALB/cByJ mice, intravenous, dose response, 24 hours
Description: The efficacy of four modified lysin polypeptides was compared to wild-type PlySs2 in a dose response (0-60 mg/kg) assay using a mouse neutropenic thigh infection (MNTI) model.
Bacterial inoculum was generated by allowing bacterial cells to grow to exponential phase in MHB until they reached an optical density (OD) of about 0.5 at 600 nm. The bacterial cells were thoroughly washed, resuspended in 0.9% sodium chloride USP, and diluted to an equivalent of 3.9×10^8 colony forming units (CFU)/mL. Cells were further diluted as described below in 0.9% sodium chloride USP and maintained on wet ice.
Neutropenia was induced in female BALB/cByJ mice (5-7 weeks, Jackson Laboratories) by intraperitoneal (ip) administration of 150 mg/kg and 100 mg/kg of cyclophosphamide 4 and 1 days prior to inoculation of bacteria, respectively. Bacterial inoculum (S. aureus isolate CFS-860, 100 μl of 10^7 CFU/ml solution) was injected intramuscularly (IM) into both posterior thighs of each mouse. […] At 2 hours post-inoculation (Early Control) and 24 hours post-treatment initiation, animals were euthanized (CO2 asphyxiation), and the thighs were aseptically removed. Each thigh was weighed, placed into 4 ml sterile saline and homogenized in 7 ml lysing tubes using a Precellys24 high-throughput tissue homogenizer (Bertin Corp, Rockville, Md.). Dilutions of homogenate were plated on tryptic soy blood agar plates (Becton Dickinson) and incubated at 37° C. overnight in a CO2 incubator. Bacterial burden was enumerated and expressed as log 10 CFU/g of thigh weight and compared to control animals harvested at 2 hours post infection (Early Control) and animals treated with vehicle (Late Control).
The data representing mouse thigh bacterial burden are depicted in FIG. 2. The upper dot on the y-axis is vehicle alone, and the lower dot on the y-axis is the Early Control. pp1149 is in fact also a wild-type lysin over-expressed and purified in the laboratory along with the other modified lysin polypeptides and used as an additional positive control.

Molecule	Adventitial findings (lesions) ([4]; 30 mg/kg)	% Wild-Type Activity at 37° C. (bacterial inoculum)	Bactericidal efficacy (thigh bacterial burden) versus wild type [6]	% of CF-301 wild-type, 37° C. (bacterial inoculum)	% of CF-301 wild-type, 40° C. (bacterial inoculum)	% of CF-301 wild-type, 42° C. (bacterial inoculum)	% of CF-301 wild-type, 45° C. (bacterial inoculum)	% of CF-301 wild-type, 48° C. (bacterial inoculum)	% of CF-301 wild-type, 50° C. (bacterial inoculum)	other results
B1	all mice	100%								MBEC50 [1]: 0.125 µg/mL; MBEC90 [1]: 0.125 µg/mL; MBEC Range [1]: 0.125 to 0.25 µg/mL; MIC50 (MSSA isolates): 0.5 µg/mL; MIC90 (MSSA isolates): 1 µg/mL; MIC Range (MSSA isolates): 0.5 to 1 µg/mL; FIC index ([2]; MRSA JMI-6182): 0.5; FIC index ([2]; MSSA ATCC 29213): 0.5; FIC index ([2]; MSSA strain JMI-40979): 0.5; FIC index ([2]; against 6 of the 10 strains examined): 0.5; FIC index [3]: 0.5; Kidney findings (renal changes) [4]: did not result in kidney findings; Incidence of adventitial findings ([4]; 30 mg/kg): 100%; MBEC50 [5]: 0.125 µg/mL; MBEC90 [5]: 0.125 µg/mL; MBEC Range [5]: 0.125 to 0.5 µg/mL; MIC50 (MRSA isolates): 0.5 µg/mL; MIC90 (MRSA isolates): 0.5 µg/mL; MIC Range (MRSA isolates): 0.12 to 1 µg/mL
B2	did not result in adventitial lesions	220%	activity comparable to wild-type PlySs2 lysin	219.9%	248.4%	270.4%	82.1%	0.0%	0.0%	
B3	did not result in adventitial lesions	122% and 146%	activity comparable to wild-type PlySs2 lysin	122.1%	110.8%	116.7%	82.0%	36.5%	11.2%	
B4	did not result in adventitial lesions	258%	activity comparable to wild-type PlySs2 lysin	258.3%	149.1%	189.4%	80.0%	0.0%	0.0%	
